Molecular target: androgen receptor (UniProt P10275)
Experiment: cell-based or functional assay

Sequence of UniProt P10275 (P10275 whole entry): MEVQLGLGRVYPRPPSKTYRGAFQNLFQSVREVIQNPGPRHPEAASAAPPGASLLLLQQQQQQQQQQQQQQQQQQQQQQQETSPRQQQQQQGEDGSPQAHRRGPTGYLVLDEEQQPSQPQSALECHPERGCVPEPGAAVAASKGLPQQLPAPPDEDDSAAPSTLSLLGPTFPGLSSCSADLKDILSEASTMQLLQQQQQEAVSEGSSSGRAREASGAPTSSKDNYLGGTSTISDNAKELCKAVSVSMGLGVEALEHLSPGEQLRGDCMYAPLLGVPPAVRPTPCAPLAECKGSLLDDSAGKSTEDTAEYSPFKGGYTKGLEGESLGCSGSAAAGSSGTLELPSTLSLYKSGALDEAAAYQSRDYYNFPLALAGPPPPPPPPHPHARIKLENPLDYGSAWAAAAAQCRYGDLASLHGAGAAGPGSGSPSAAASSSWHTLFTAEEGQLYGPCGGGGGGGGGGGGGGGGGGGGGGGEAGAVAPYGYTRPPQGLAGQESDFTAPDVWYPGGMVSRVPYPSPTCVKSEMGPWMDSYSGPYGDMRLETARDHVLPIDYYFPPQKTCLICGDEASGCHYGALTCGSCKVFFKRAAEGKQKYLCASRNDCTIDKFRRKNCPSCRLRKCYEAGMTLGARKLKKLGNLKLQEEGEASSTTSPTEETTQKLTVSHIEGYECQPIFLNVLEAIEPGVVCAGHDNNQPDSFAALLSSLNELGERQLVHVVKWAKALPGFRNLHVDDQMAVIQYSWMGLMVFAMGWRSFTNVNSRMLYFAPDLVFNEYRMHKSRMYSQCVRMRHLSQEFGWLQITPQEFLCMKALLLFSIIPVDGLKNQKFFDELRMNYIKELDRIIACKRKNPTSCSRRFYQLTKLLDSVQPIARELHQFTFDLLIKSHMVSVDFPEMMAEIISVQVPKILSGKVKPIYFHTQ

With “human androgen receptor down-regulatory-associated protein” the luciferase activity of AFP promoter (ARE) reporter in MCF7 and G2 cells (times (relative to the control reporter)) was 2.

Source: patent US20040115656A1
